What was measured:
integrin a8b1 = integrin a8b1 (Homo sapiens, UniProt P05556+P53708); assay: BLI cross specificity, integrin a8b1; format: binding; conditions: 500 nM integrin (FIG. 2B legend: 500 nM or 1000 nM), integrin assay buffer
integrin avb8 = integrin avb8 (Homo sapiens, UniProt P06756+P26012); assay: BLI cross specificity, integrin avb8; format: binding; conditions: 500 nM integrin (FIG. 2B legend: 500 nM or 1000 nM), integrin assay buffer
HUVECs [1] = assay: Tube formation assay; format: cell-based, human
Protocol: (§1) FIG. 2. (A) BLI binding affinity traces for minibinder or ^8RGD^10/GGG mutant against α5β1 in indicated buffers. Minibinder affinity to integrin α5β1 is dependent on metal ion presence and RGD motif. All affinity data was collected by Octet™ R8 and binding affinity was estimated by the Octet™ ForteBio software package. (B) Minibinder has no detectable affinity in presence of 500 nM or 1000 nM integrin αvβ1, αvβ3, αvβ6, αvβ8 and α8β1. (C) Cell surface titration of minibinder 4584_V5.3 and 00179_v4.1 against K562 cells wild type. […] Integrin α5 subunit and β1 subunit were stained with integrin α5 and active integrin β1 subunit specific antibody, respectively. (E) Quantification of (D). Quantification was counted as a percentage of mb-sheets that colocalized with staining of a5 and b1, a5 only, b1 only, or none; 30-35 sheets were counted in each biological repeat. […] Vascular stability was analyzed at 12-h timepoints. […] (G) Quantification of (F). The number of nodes, meshes, and tubes from images in (F) were quantified using an angiogenesis analyzer plug-in in ImageJ. Statistical significance of each were analyzed using One-way Anova Bonferroni's multiple comparison test. […] The wound area of T0 and T12 time points were quantified using imageJ and level of cell migration were calculated using this equation (AreaT0-T12)/AreaT0, all samples were normalized to PBS as fold change. […]

HUVECs [2] = assay: Scratch-wound cell migration assay; format: cell-based, human; conditions: 20 nM, 12 hours, compared to PBS control
Protocol: FIG. 2. (A) BLI binding affinity traces for minibinder or ^8RGD^10/GGG mutant against α5β1 in indicated buffers. Minibinder affinity to integrin α5β1 is dependent on metal ion presence and RGD motif. All affinity data was collected by Octet™ R8 and binding affinity was estimated by the Octet™ ForteBio software package. (B) Minibinder has no detectable affinity in presence of 500 nM or 1000 nM integrin αvβ1, αvβ3, αvβ6, αvβ8 and α8β1. (C) Cell surface titration of minibinder 4584_V5.3 and 00179_v4.1 against K562 cells wild type. […] Integrin α5 subunit and β1 subunit were stained with integrin α5 and active integrin β1 subunit specific antibody, respectively. (E) Quantification of (D). Quantification was counted as a percentage of mb-sheets that colocalized with staining of a5 and b1, a5 only, b1 only, or none; 30-35 sheets were counted in each biological repeat. […] Minibinders were added to HUVEC cells at 0, 0.1, 1, 10, and 100 nM. Vascular stability was analyzed at 12-h timepoints. 20 images were taken in each well at random locations. The scale bar is 100 μm. (G) Quantification of (F). The number of nodes, meshes, and tubes from images in (F) were quantified using an angiogenesis analyzer plug-in in ImageJ. Statistical significance of each were analyzed using One-way Anova Bonferroni's multiple comparison test. […] The wound area of T0 and T12 time points were quantified using imageJ and level of cell migration were calculated using this equation (AreaT0-T12)/AreaT0, all samples were normalized to PBS as fold change.
The inhibitory effect of 20 nM soluble 00179_v4.1 on cell migration was assessed using the scratch-wound assay. HUVECs were seeded with either 00179_v4.1 or PBS (used as a […] control) for 12 hours before capturing images for analysis.

integrin avb6 = integrin avb6 (Homo sapiens, UniProt P06756+P18564); assay: BLI cross specificity, integrin avb6; format: binding; conditions: 500 nM integrin (FIG. 2B legend: 500 nM or 1000 nM), integrin assay buffer
[3] = biological target: T1, active form of integrin α5β1 (Homo sapiens, UniProt P05556+P08648); assay: Colocalization of minibinder conjugated to GFP-tagged protein sheets with integrin staining; format: cell-based; conditions: α5 and active β1 specific antibodies
T1 construct: endogenous in cells
T1 sequence (P08648 42-894 limits assumed): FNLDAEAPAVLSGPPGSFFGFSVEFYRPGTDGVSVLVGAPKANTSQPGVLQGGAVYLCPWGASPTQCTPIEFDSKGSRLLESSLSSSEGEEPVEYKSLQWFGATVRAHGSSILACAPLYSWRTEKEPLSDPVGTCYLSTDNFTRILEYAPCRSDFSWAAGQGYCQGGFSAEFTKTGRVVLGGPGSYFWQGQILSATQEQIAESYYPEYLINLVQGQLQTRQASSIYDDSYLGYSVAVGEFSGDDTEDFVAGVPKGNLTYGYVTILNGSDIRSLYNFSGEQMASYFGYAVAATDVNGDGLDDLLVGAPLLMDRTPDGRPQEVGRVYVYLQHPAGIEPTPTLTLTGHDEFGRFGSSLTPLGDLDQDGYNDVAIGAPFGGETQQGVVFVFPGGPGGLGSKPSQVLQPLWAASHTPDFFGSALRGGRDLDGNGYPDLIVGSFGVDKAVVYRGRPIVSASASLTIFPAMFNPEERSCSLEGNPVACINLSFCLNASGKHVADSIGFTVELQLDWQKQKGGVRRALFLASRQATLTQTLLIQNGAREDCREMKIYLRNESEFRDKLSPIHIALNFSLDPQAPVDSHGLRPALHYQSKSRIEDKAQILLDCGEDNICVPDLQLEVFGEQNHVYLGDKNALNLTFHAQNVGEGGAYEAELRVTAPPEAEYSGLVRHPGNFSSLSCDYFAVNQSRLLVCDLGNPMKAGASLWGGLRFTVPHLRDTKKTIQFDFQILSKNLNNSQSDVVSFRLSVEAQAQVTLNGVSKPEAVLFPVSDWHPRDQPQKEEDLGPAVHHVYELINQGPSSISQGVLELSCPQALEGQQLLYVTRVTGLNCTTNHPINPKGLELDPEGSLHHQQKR
T1 sequence (P08648 895-1049 partner limits assumed): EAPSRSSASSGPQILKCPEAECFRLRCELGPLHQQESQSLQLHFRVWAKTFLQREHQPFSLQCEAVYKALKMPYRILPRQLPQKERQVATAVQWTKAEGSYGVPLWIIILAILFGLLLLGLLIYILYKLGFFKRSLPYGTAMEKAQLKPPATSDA
T1 sequence (P05556 21-798): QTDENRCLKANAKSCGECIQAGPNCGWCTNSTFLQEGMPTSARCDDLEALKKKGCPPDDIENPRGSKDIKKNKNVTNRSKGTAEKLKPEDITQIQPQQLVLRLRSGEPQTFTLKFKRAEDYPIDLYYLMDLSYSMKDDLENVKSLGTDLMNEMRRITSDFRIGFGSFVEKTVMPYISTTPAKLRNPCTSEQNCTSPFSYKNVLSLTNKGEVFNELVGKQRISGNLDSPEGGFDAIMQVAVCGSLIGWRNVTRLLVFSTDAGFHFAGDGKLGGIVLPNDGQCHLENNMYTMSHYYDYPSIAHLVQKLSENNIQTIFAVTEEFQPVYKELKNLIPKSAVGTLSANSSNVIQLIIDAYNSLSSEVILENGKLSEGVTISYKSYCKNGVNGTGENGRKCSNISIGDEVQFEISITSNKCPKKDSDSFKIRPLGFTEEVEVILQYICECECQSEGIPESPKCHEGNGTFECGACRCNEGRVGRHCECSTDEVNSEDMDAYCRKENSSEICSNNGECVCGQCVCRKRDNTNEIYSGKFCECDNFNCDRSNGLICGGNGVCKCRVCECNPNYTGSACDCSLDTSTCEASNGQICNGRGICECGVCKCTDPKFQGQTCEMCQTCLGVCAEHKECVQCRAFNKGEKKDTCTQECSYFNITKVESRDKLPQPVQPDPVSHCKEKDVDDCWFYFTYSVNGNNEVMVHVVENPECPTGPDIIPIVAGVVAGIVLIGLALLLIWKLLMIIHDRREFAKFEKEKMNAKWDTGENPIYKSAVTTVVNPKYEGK
Protocol: as §1

integrin avb1 = integrin avb1 (Homo sapiens, UniProt P05556+P06756); assay: BLI cross specificity, integrin avb1; format: binding; conditions: 500 nM integrin (FIG. 2B legend: 500 nM or 1000 nM), integrin assay buffer
Sequence of integrin avb1 (P06756 31-889 limits assumed): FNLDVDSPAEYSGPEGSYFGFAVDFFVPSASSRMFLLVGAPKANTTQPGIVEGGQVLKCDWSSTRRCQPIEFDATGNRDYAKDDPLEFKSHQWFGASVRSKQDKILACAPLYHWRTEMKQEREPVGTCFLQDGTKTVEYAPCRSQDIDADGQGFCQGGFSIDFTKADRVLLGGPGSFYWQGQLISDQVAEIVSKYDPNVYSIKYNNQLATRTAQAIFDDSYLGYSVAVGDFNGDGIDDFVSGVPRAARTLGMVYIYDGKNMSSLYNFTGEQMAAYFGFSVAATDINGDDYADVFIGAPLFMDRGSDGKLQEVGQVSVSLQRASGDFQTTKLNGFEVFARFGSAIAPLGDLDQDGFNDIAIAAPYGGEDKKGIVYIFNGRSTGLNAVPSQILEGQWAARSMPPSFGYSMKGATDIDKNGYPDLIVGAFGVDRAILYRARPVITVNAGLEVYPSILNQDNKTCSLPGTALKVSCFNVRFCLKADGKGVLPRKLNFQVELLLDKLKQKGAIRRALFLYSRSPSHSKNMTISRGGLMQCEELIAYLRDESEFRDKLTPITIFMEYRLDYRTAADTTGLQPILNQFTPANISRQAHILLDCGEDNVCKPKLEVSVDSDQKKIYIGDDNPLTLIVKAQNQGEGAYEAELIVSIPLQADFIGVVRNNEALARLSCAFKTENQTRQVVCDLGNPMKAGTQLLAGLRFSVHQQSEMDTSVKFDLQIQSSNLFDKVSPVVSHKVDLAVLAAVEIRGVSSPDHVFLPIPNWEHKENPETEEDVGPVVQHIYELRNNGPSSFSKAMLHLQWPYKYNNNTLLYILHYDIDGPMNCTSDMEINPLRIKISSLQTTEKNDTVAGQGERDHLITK
Sequence of integrin avb1 (P06756 891-992 partner limits assumed): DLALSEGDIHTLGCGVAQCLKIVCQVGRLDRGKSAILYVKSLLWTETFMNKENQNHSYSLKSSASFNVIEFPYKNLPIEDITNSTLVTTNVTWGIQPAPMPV
Sequence of integrin avb1 (P05556 21-728 limits assumed): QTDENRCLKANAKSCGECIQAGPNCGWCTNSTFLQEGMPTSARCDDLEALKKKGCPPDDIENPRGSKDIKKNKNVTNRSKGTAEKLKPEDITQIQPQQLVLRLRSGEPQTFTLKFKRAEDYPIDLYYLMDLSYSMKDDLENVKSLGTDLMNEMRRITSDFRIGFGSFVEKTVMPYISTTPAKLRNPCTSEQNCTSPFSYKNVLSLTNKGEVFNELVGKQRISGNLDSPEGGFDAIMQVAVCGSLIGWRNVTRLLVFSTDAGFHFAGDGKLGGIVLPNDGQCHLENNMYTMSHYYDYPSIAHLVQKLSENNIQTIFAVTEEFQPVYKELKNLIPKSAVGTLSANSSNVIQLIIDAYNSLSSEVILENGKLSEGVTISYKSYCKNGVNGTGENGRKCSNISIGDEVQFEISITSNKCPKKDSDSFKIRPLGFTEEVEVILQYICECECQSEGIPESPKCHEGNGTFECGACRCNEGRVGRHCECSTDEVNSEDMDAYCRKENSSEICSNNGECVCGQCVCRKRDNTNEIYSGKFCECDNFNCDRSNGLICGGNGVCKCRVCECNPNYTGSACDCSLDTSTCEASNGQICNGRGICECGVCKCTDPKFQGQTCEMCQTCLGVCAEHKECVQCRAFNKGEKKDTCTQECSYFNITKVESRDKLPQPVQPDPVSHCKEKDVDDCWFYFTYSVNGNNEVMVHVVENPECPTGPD

integrin avb3 = integrin avb3 (Homo sapiens, UniProt P05106+P06756); assay: BLI cross specificity, integrin avb3; format: binding; conditions: 500 nM integrin (FIG. 2B legend: 500 nM or 1000 nM), integrin assay buffer
[4] = biological target: T2, α5β1 on K562 cells wild type (Homo sapiens, UniProt P05556+P08648); assay: Cell surface titration of minibinder on wild type cells; format: cell-based; conditions: α5β1 the only RGD binding integrin expressed
T2 construct: endogenous in cells; host or cells: K562 wild type (printed 'A562')
T2 sequence (P08648 42-894 limits assumed): as the sequence (P08648 42-894 limits assumed) above
T2 sequence (P08648 895-1049 partner limits assumed): as the sequence (P08648 895-1049 partner limits assumed) above
T2 sequence (P05556 21-798): as the sequence (P05556 21-798) above
Protocol: as §1

Sequence of integrin a8b1 (P53708 39-906 limits assumed): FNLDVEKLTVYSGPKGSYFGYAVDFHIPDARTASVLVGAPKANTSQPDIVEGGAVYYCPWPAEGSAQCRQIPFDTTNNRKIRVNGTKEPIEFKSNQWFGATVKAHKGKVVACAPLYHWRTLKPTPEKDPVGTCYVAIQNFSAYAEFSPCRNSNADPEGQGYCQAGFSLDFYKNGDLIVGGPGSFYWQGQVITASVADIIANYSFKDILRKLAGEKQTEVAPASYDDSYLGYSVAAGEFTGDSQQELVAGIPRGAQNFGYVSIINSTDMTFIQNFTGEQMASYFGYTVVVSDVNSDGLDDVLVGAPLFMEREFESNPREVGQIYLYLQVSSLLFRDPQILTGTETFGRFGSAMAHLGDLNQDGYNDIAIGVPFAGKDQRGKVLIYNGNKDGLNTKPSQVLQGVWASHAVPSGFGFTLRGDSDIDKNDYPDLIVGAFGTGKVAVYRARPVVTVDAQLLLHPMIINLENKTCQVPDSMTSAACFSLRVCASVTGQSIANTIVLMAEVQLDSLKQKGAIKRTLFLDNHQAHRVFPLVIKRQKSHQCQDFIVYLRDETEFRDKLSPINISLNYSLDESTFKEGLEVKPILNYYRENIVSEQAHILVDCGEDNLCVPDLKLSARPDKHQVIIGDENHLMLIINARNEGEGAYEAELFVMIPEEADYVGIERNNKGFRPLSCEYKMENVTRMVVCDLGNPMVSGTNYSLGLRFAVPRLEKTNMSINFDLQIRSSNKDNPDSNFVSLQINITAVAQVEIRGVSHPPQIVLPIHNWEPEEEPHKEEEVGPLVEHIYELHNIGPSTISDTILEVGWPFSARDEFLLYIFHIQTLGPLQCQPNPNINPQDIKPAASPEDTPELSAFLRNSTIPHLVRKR
Sequence of integrin a8b1 (P53708 907-1011 partner limits assumed): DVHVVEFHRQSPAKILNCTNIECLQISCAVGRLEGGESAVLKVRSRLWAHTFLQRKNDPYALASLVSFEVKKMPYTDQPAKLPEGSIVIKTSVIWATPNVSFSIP
Sequence of integrin a8b1 (P05556 21-728 limits assumed): as the sequence (P05556 21-728 limits assumed) above

B1: 00179_v4.1: highest affinity α5β1 minibinder, sequence SELIIHGRGDFPSSELERLRERFERLGIKVRVDHKVLTLIGISEEEAERLARELRKRGIWVEIRK (protein)
chain: SELIIHGRGDFPSSELERLRERFERLGIKVRVDHKVLTLIGISEEEAERLARELRKRGIWVEIRK
binding to integrin a8b1 (integrin a8b1): No detectable binding | binding to integrin avb8 (integrin avb8): No detectable binding | vascular stability (HUVECs [1]; HUVEC cells, 0, 0.1, 1, 10 and 100 nM, 12-h timepoint): decrease in vascular stability | tube formation (HUVECs [1]; HUVECs, 10 nM and 100 nM, 12 hours, compared to PBS control): significantly attenuated | cell migration (HUVECs [2]): significant reduction in cell migration | binding to integrin avb6 (integrin avb6): No detectable binding | localization of minibinder sheet with integrin α5 and active β1 staining [3]: colocalized with active form of integrin α5β1 | binding to integrin avb1 (integrin avb1): No detectable binding | binding to integrin avb3 (integrin avb3): No detectable binding | binding affinity to α5β1 on the cell surface [4]: Nanomolar binding ability

Source: US20240383964A1, “De Novo Designed alpha(5) beta(1) Integrin selective minibinders” (UNIVERSITY OF WASHINGTON, priority 2023, published 2024)
